Results from the nanobody polyreactivity screen of Harvey et al. (2022).

Test: yeast display, Sf9 membrane polyspecificity reagent, FACS + sequencing; frameworks hold sequencing errors
In short: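 After 36–48 hours of galactose induction, yeast (Saccharomyces cerevisiae BJ5465) displaying a synthetic nanobody library were stained at 4 °C for 1 hour with 10% biotinylated, detergent-solubilized Sf9 membrane reagent. Streptavidin microbeads enriched the stained cells before FACS sorting into low and high (top ~1%) gates on anti-HA and streptavidin fluorescence. Each clone's polyreactivity label reflects its gate of origin.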

Sequence	polyreactivity (PSR sort gate)
QVQLVESGGGLVQAGGSLRLSCAASGSTFKVNAMGWYRQAAGKEREFVAAITKNGGRTYYADSVKGRFTISRDYAKNTVYLQMNSLKPEDTAVYYCAARLYLPIIVVDLYGYDYWGQGTQVTVSS	low polyreactivity
QVQLVESGGGLVQAGGSLRLSCAASGIIIITYAMGWYRQAPGKERELVAVISFSGGGTYADSVKGRFTISRDNAKNTVYLQMNSLKPEVTAVYYCAKYWLSALTLEDDYCGQGTQVTVSS	low polyreactivity
QVQLVESGGGLFQAGGSLRLSCAASGITFAYYAMAWYRQAPGKERELVARISRRGGSTYYADSVKGRFTISRDNAKNTVYLQMNSLKPEDTAVYYCAARVVVPKPYVDGDYWGQGTQVTVSS	high polyreactivity
QVQLVESGGGLVQAGGRLRLSCAASGSTFYQYAMGWYRQAPGKERELVAAISKSGGSTYYADSVKGRFTISRDNAKNTVYLQMNSLKPEDTAVYYCATRWIKGRKMVYWGQGTQVTVSS	high polyreactivity
QVQLVESGGGLVQAVGSLRLSCAASGSIFQPYAMGWYRQAPGKERELVAAISIGDSTNYADSVKGRFTISRDNAKNTVYLQMNSLKPEDTAVYYCNTTGEYYDYWGQGTQVTVSS	low polyreactivity
QVQLVESGGGLVQAGGSLRLSCAASGRTFVYNAMGWYRQAPGKERELVAAITWNGGSTYYADSVKGRFTISRDNAKNTVYLQMNSLKPEDTAVYYCNRDVRYVGPSGFDYWGQGTQVTVSS	high polyreactivity
QVQLVESGGGLVQAGGSLRLSCAGSGHIFRQYAMGWYRQAPGKERELVAAITSGGSTYYADSVKGRFTISRDNAKNTVYLQMNSLKPEDTAVYYCATRPGGDRPIGYDYWGQGTQVTVSS	low polyreactivity
QVQLVESGGGLVQAGGSLRLSCAASGRIFYNNAMGWYRQAPGKERELVASITRNGGRTYYADSVKGRFTISRDNAKNTVYLKMNSLKREDTAVYYCAIDYSRGQIRAGAYEYWGQGTQVTVSS	high polyreactivity
QVQLVESGGGLVQAGGSLRLSCSASGSIFASNTMGWYRQAPGKERELVAGITKIGSSTYYADSVKGRFTISRDNAKNTFYLQMKSLKPEDTAVSYCKAYGPNIYSSRYDYWVQGTQVTVSS	low polyreactivity
QVQLVESGGGLVQAGGTLRLSCAASGITFEHYAMGWYRQAPGKERELVAAINRSGDNTYYADSVKGRFTISRYNAKNTFYLQMNSLKPEDTAVYYCNTVELYWRGYDYWGQGTQVTVSS	high polyreactivity
QVQLVESGGGLVEAGGSLRLSGAASGRSFGIYAMGWYRQAPGKERELVAAITWSGDSTYYADSVKGRFTISRDNAKKTVYLQMNILKPEDTAVYYCAADDVGVTSVRYDYWGQGTLVTVSS	low polyreactivity
QVQLVESGGGLVQAGGSLRLSCAASGYTFYAYAMGWYRQAPGTERELVAAITSGSSTYYADSVKGRFTISRDNAKNTVYLQMNSLKPEDTAVYYCSAEVFPGYDYWGQGTQVTVSS	low polyreactivity
QVQLVESGGGIVQAGGSLRLSCAASGFIFQRYVMGWYRQEPGKERQLVAAISSGGSTNYADSVKGRFTISRDNAKNTVYLQMNSLKAEDTAVYYFAADGFYYRNWGRFRYYYWGLGTQVTVSS	low polyreactivity
QVQLVESGGGLVQAGGSLRLSCAASGIILLFYVMGWYRQAPGKERELVASINGRSARTYYADSVKGRFTISRDNAKNTVYLQMNSLKPEDTAVYYCAAGYRYAGNGQIANTGGYYWGQGTQVTVSS	low polyreactivity
QVQLVESGGGLVQAGVSIRLSCAASGSIYENNAMGRYRQAPGKERELVAGITWSGGSTRYADSVKGRFTISRDNAKNTVYLQMNSLKPEDTAVYYCATDDFTYVVAKDGDYWGQGTQVTVSS	low polyreactivity
QVQLVESGGGLVQAGGSLRLSCAASGFILKYNAMGWYRQAPGKERELVAAISSNGGRTYYADSVKVRFTISRDNAKNTVYLQMKSLKPEDTAVDYCAAGRLQPVLGGYWGQGSQVTVSS	low polyreactivity

Sequence	polyreactivity (PSR sort gate)
QVQLVESGGGLVQAGGSLRLSCAASGGIFFSYAMGWYRQAPGKERELVAAIRTNGGTTYYADSVKGRFTISRDNAKNTVYLQMNSLKPEDTAVYYCAAKQFSVTLSNYWGQGTQVTVSS	low polyreactivity
QVQLVESGGGLVQAGGSLRLSCAASGSTFLSYAMGWYRQAPGKERELVAAISWSDVNTYYADSVKGRFTISRDNAKNTVYLQMNSLKPEDTAVYYCNARYYLYWGQGTQVTVSS	low polyreactivity
QVQLVESGGGLVQAGGRLRLSCAASGGIFVSYAMGWYRQSPGKEREMVAAITSGGGTSYADSVKGRFTISRDNAKNTVYLQMNSLKPEDTEVYYCAARFMWSVFGRKGGYWGQGTQVTVSS	low polyreactivity
QVQLVESGGGLVQAGGSLRLSCAASGRIFDKYTMGWYRQAPGTERELVAAISKSGSGTFYADSVKGRFTISRDNAKNTVYLQMNSLKPEDTAVYYCARVYTVGTGRSWRLDYWGQGTQVTVSS	high polyreactivity
QVQLVESGGGLVQAGGSLRLSCAASGLIFGGNAMGWYRQAPGKERELVAAISRTGGRTYYADSVKGRFTISRDNAKNTVYLQMNSLKPDDTAVYFCAAAAQRPEGYYWGQGTQVTVSS	high polyreactivity
QDQLVESGGGLVQAGGSLRLSFAASGRIIYYNAMGWYRQAPGKERELVAAISFSDGSTYYADSVKGRFTISRDNAKKTVYLQMNSLKPEDTAVYYCAADIGYYYDYWGQGTLVTVSS	low polyreactivity
QVQLVESGGGLVQAGGSLRLSCAASGSIFRTYAMGWYRQAPGKESELVAAISRSGSSTYYADSVKGRFTISRDNAKNTVYLQRTSLQPEDTAVYYCAAYWPLSYGARGSNYWGQGTQVTVSS	high polyreactivity
QVQLVESGGGLVQAGGSLRLSCAASGLTLQGYVMGWSRQAPGKDRELVATISYSGGSTRYADSVKGRFTISRDNAKNTVYLQMNSLNPEDTAVYYCNRDSFHYYAERDYWGQGTQVTVSS	low polyreactivity
QVQLVESGVGLVQAGGSLRLSCAASGSTFYYYAMGWYRQAPGKERELVAAISWSGASTFYADSVKGRFTISRDNAKITVYLQMNSLKPEDTAVFYCAARYYGQPQYQPLYYWGQGTQVTVSS	high polyreactivity
QVQLVESGGGLVQAGGSLRLSCAASGRIFYPYAMGWSRQAPGKERELVAAISSSAGITYYADSVKGRFTISRDNAKKTVYLQMNSLKPEDTAVYYCAKYPVRNPYGYRYDYWGQGTQVTVSS	high polyreactivity
QVQLVESGGGVVQAGGSLRLSCAASGFIFYYNTMGWYRQAPGKERELVASMTWSGDTTYYADSVKGRFTISRDNAKNTVYLQMNSLTPEDTAVYYCAAVHYDPYRRYDYWGQGTQVTVSS	low polyreactivity
QVQLVESWGGLVQAGGSLRLSCAASGRTFGKYAMGWYRQAPGKERELVASITFSSGSTYYADSVKGRFTISRDNAKNTVYLQMNSLKPEDTAVYYCAKRGWGIYDYWGQGTQVTVSS	low polyreactivity
QVQLVESGGGLVQAGGSLRLSCAASGRTFYGNAMGWYRQAPGKERELVAAITSGGGSTRYADSVKGRFTISRDNAKNSVYLQMNSLKPEDTAVYYCAALYWYEYTYLEYDYWGQGTQVTVSS	high polyreactivity
QVQLVESGGGLVQAGGSLRLSCAASGLIFFYYAMGWYRQAPGKERELVATINWNGGSTYYADSVKGRFTISRDNAKNTVYLQMNSLKPEDTAVYYCAADAPAGGDSDNDYWGQGTQVTVSS	high polyreactivity
QVQLVESGGGLVQAGGSLRLTCAASGYIFYRYALGWYRKAPGKERELVAAINSGGSTYYADSVKGRFTISRDNAKNTVYLQMNSLKPEDTAVYYCNVLGWWHVWVYDYWGQGTQVTVSS	high polyreactivity
QVQLVESGGGLVQAGGSLRLSCAASGTFFIYAMGWYRQAPGKERELVATISTGGSTNYADSVKGRFTISRDNAKNTVYLQMNSLKPEDTAVYYFAAEWLYPHDGGYPRPMDYWGQGTQVTVSS	low polyreactivity
